Source: doi:10.1101/2022.02.07.479474

Key:
Test in all cases: NMR
PBRM1 BD4 KRK = PBRM1 BD4 KRK (UniProt Q86U86 496-637, K511A;R512A;K513A)
PBRM1 BD4 = PBRM1 BD4 (UniProt Q86U86 496-637)
PBRM1 BD2 SKY = PBRM1 BD2 SKY (UniProt Q86U86 178-291, S275A;K277A;Y281A)
PBRM1 BD2 = PBRM1 BD2 (UniProt Q86U86 178-291)
PBRM1 BD2, sequence (Q86U86 178-291): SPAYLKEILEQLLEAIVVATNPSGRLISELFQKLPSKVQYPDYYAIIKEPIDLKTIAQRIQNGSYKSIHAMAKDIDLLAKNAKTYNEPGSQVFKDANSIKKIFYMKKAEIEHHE

PBRM1 BD4 KRK, sequence (Q86U86 496-637 K511A/R512A/K513A): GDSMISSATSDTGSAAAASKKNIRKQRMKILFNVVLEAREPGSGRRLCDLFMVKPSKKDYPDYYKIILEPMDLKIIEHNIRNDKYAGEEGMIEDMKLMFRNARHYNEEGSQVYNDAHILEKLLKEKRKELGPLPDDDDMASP
PBRM1 BD4, sequence (Q86U86 496-637): as the sequence (Q86U86 496-637 K511A/R512A/K513A) above, with A16K, A17R, A18K counted along it
PBRM1 BD2 SKY, sequence (Q86U86 178-291 S275A/K277A/Y281A): as the sequence (Q86U86 178-291) above, with S98A, K100A, Y104A counted along it

B1: dsRNAI (structured_RNA)
RNA: GCGUAGACAGCUGUUCGCAGCUGUCUAUGC
Work on B1 yielded a Kd (PBRM1 BD4 KRK) of 1020 ± 40 µM, a Kd (PBRM1 BD4) of 120 ± 20 µM and a Kd (PBRM1 BD2 SKY) of 200 ± 70 µM. It also gave a Kd (PBRM1 BD2) of 25 ± 8 µM.
